Measurements from the supplement of paper PMC10126150.
± gives the standard deviation of the averaged measurements.

Test system: ATP
Assay: switch fluorescence ratio, 500 uM ATP over buffer (Cy3 cluster intensity, sum of 5 cycles each) (fold (ratio)); higher = stronger signal-on switching upon ATP binding; sequences stand for … in TCGTCGGCAGCGTCAGATGTGTATAAGAGACAGTTTTTTTTTTTTTTTTTTTTTTTTT…TC
Conditions: aptamer strand: ATP DNA aptamer (quencher-CACCTGGGGGAGTATTGCGGAGGAAGG + anchor), 100 nM annealed; ATP concentration: 500 uM
Procedure, shortened: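 Between each of five buffer/ATP cycles, the flow-cell was stripped with NaOH and re-annealed. Each cycle imaged Cy3-labelled switching-strand clusters, annealed to 100 nM quencher-labelled ATP aptamer on a modified Illumina MiSeq flow-cell, first in selection buffer and then after 15 min with 500 uM ATP at 22 °C. The fluorescence ratio is summed target-cycle over summed buffer-cycle Cy3 intensity per cluster, averaged per switch-domain sequence, with clusters outside 100-1000 RFU excluded.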
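Further: ATP exposure 15 min at 22 °C before imaging.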

Row | Sequence | switch fluorescence ratio
1 | CATTTGTATT | 1.01 ± 0.038
2 | CATTTGTTAG | 0.9657 ± 0.0071
3 | CATTTTACTT | 1.02 ± 0.035
4 | CATTTTAGGG | 0.988 ± 0.027
5 | CATTTTGCGC | 1.04 ± 0.042
6 | CATTTTGGTT | 0.995 ± 0.036
7 | CATTTTTACG | 1.01 ± 0.026
8 | CCAAAAGTGG | 1.04 ± 0.044
9 | CCAAAATTG | 1.02 ± 0.018
10 | CCAAATCGGA | 1 ± 0.022
11 | CCAAATGCGA | 1.97 ± 0.068
12 | CCAAATGTCG | 0.982 ± 0.025
13 | CCAACAGGCC | 1.14 ± 0.12
14 | CCAACTTTTT | 0.962 ± 0.014
15 | CCAAGAGGGC | 1.04 ± 0.023
16 | CCAAGTTCGG | 1.02 ± 0.011
17 | CCAATGAGTG | 1.01 ± 0.023
18 | CCAATGCTGT | 1.115 ± 0.0091
19 | CCAATGGAGG | 0.994 ± 0.034
20 | CCAATGGGAA | 1.01 ± 0.025
21 | CCACAGCCGG | 1.23 ± 0.13
22 | CCACATTGCT | 1.21 ± 0.017
23 | CCACATTGTA | 1.01 ± 0.018
24 | CCACGATTAC | 3.44 ± 1.3
25 | CCACGGGATG | 1.09 ± 0.03

Row | Sequence | switch fluorescence ratio
26 | CCACGTCAAC | 1.59 ± 0.052
27 | CCACGTGGGC | 1.07 ± 0.14
28 | CCACTGGTGT | 3.92 ± 0.56
29 | CCACTTACGG | 1.6327 ± 0.00046
30 | CCACTTAGGG | 1.01 ± 0.021
31 | CCACTTGCTA | 1.16 ± 0.037
32 | CCAGAACCGG | 1.01 ± 0.0022
33 | CCAGAAGGGG | 1.52 ± 0.89
34 | CCAGACGGGG | 0.986 ± 0.029
35 | CCAGAGGAGG | 1.01 ± 0.076
36 | CCAGATATGG | 1.01 ± 0.041
37 | CCAGATTGGG | 1.004 ± 0.0052
38 | CCAGCAAGAT | 4.63 ± 0.51
39 | CCAGCAGCGG | 1.12 ± 0.063
40 | CCAGCGAATG | 1.05 ± 0.028
41 | CCAGCGTGGT | 1.1 ± 0.019
42 | CCAGCTGGCT | 1.026 ± 0.0063
43 | CCAGCTTTGC | 1.02 ± 0.057
44 | CCAGGAGGGA | 1.002 ± 0.0041
45 | CCAGGAGGGG | 1.04 ± 0.012
46 | CCAGGCGATT | 1.07 ± 0.095
47 | CCAGGCTAAT | 1.03 ± 0.014
48 | CCAGGGAGGG | 1.06 ± 0.051
49 | CCAGGGATCA | 1.049 ± 0.0023
50 | CCAGGGCGCG | 1.004 ± 0.002

Row | Sequence | switch fluorescence ratio
51 | CCAGGGGTAA | 1.17 ± 0.055
52 | CCAGGGGTCT | 1.22 ± 0.028
53 | CCAGGGGTTT | 2.66 ± 2.4
54 | CCAGGTCTAT | 1.08 ± 0.018
55 | CCAGTATTTT | 0.999 ± 0.015
56 | CCAGTCATCA | 0.9961 ± 0.0014
57 | CCAGTCGGAG | 0.9776 ± 0.0038
58 | CCAGTGACAT | 1.03 ± 0.028
59 | CCAGTGGCTA | 1.016 ± 0.0033
60 | CCAGTGTCGG | 0.969 ± 0.04
61 | CCAGTTACGG | 1.032 ± 0.01
62 | CCAGTTAGCC | 1.04 ± 0.13
63 | CCAGTTTCGG | 0.983 ± 0.049
64 | CCAGTTTGGA | 0.998 ± 0.017
65 | CCATACGTTG | 1.037 ± 0.0051
66 | CCATACGTTT | 1.02 ± 0.046
67 | CCATATCTAT | 1 ± 0.029
68 | CCATCAGGG | 1.16 ± 0.042
69 | CCATCTGCGC | 1.82 ± 0.074
70 | CCATGCAGGC | 1.28 ± 0.13
71 | CCATGGATCA | 0.9992 ± 0.0091
72 | CCATGGGTAG | 0.974 ± 0.056
73 | CCATGGTAGT | 1.028 ± 0.0029
74 | CCATGGTTAC | 2.67 ± 2.3
75 | CCATGTAAGA | 1.018 ± 0.0091

Row | Sequence | switch fluorescence ratio
76 | CCATGTGTTG | 1.03 ± 0.043
77 | CCATGTTGAG | 0.997 ± 0.0086
78 | CCATGTTTGT | 1.01 ± 0.028
79 | CCATTATGGT | 1.01 ± 0.03
80 | CCATTCAGGT | 1.04 ± 0.065
81 | CCATTCATAG | 0.973 ± 0.022
82 | CCATTGAATG | 1.02 ± 0.015
83 | CCATTGATGT | 1.02 ± 0.023
84 | CCATTTGACC | 1.04 ± 0.014
85 | CCATTTGTT | 1.04 ± 0.035
86 | CCATTTTTGG | 0.992 ± 0.011
87 | CCCAATAGTG | 1.35 ± 0.042
88 | CCCACTACAT | 1.06 ± 0.035
89 | CCCAGGCCCG | 1.058 ± 0.0088
90 | CCCATCTTTT | 1 ± 0.0025
91 | CCCATGCAAG | 1.3 ± 0.32
92 | CCCATGCCCG | 1.04 ± 0.021
93 | CCCATGTTTC | 1.02 ± 0.023
94 | CCCCGAGGAT | 1.14 ± 0.022
95 | CCCCTTGTTC | 1.01 ± 0.02
96 | CCCGAAGTCT | 1.05 ± 0.012
97 | CCCGAGCCTC | 1.36 ± 0.1
98 | CCCGAGTTAT | 1.067 ± 0.01
99 | CCCGATGCGC | 1.42 ± 0.51
100 | CCCGGAAGTG | 1.24 ± 0.018

Row | Sequence | switch fluorescence ratio
101 | CCCGGCGAT | 1.85 ± 1.2
102 | CCCGGGAAAA | 0.943 ± 0.03
103 | CCCGGGGGGA | 1.55 ± 0.7
104 | CCCGGGGTGT | 3.55 ± 0.15
105 | CCCGTAGTTA | 1.19 ± 0.042
106 | CCCGTGGGGA | 1.2 ± 0.15
107 | CCCGTTGGTT | 1.27 ± 0.34
108 | CCCGTTTGGG | 0.981 ± 0.023
109 | CCCTAACCCG | 1.18 ± 0.055
110 | CCCTAGGTTT | 1.73 ± 0.79
111 | CCCTCACTTA | 1.08 ± 0.049
112 | CCCTGGGGGT | 1.15 ± 0.067
113 | CCCTGGTGGG | 1.04 ± 0.11
114 | CCCTTAGTGC | 1.14 ± 0.022
115 | CCCTTAGTGT | 1.04 ± 0.031
116 | CCCTTTATTT | 1.29 ± 0.36
117 | CCCTTTTTAT | 0.986 ± 0.014
118 | CCGAAAATGA | 1.35 ± 0.49
119 | CCGAAGACAG | 3.11 ± 0.21
120 | CCGAAGGGGT | 1.18 ± 0.16
121 | CCGAAGGGTT | 1.02 ± 0.077
122 | CCGAGAGGGT | 1.06 ± 0.069
123 | CCGAGGGTG | 1.81 ± 0.098
124 | CCGAGGTATC | 3.23 ± 2.1
125 | CCGAGTGGGC | 1.09 ± 0.012

Row | Sequence | switch fluorescence ratio
126 | CCGATACGGG | 1.072 ± 0.0082
127 | CCGATGATTT | 1.5 ± 0.56
128 | CCGATTTGGC | 1.14 ± 0.044
129 | CCGCATGCTT | 2.76 ± 2
130 | CCGCCGGGGG | 1.09 ± 0.041
131 | CCGCGAGGGT | 1.57 ± 0.29
132 | CCGCGGGATT | 1.28 ± 0.32
133 | CCGCGGGGAG | 1.1 ± 0.041
134 | CCGCTAGCCT | 2.94 ± 0.53
135 | CCGCTTAGAT | 2.34 ± 0.23
136 | CCGGAAATGA | 1.02 ± 0.054
137 | CCGGACTCTT | 1.11 ± 0.015
138 | CCGGAGGGGA | 1.27 ± 0.18
139 | CCGGATAGTG | 1.03 ± 0.026
140 | CCGGCAGGAT | 0.988 ± 0.011
141 | CCGGGACAGC | 1.17 ± 0.077
142 | CCGGGAGCGC | 1.98 ± 0.83
143 | CCGGGGAATC | 2.19 ± 0.57
144 | CCGGGGACCC | 1.13 ± 0.08
145 | CCGGGGATCA | 1.01 ± 0.024
146 | CCGGGGGACG | 1.06 ± 0.14
147 | CCGGGGGGAT | 1.55 ± 0.66
148 | CCGGGGGGTA | 1.37 ± 0.017
149 | CCGGGGGT | 1.036 ± 0.0046
150 | CCGGGGGTCC | 1.02 ± 0.019

Row | Sequence | switch fluorescence ratio
151 | CCGGGGGTCG | 1.06 ± 0.074
152 | CCGGGGGTTA | 1.14 ± 0.23
153 | CCGGGGTGGC | 1.16 ± 0.11
154 | CCGGGGTTGA | 0.993 ± 0.074
155 | CCGGGGTTTG | 0.998 ± 0.019
156 | CCGGGTAAGG | 0.9989 ± 0.0045
157 | CCGGGTAGTT | 1.02 ± 0.074
158 | CCGGGTGACA | 1.25 ± 0.048
159 | CCGGGTTACT | 1.91 ± 0.044
160 | CCGGGTTGCA | 1.03 ± 0.04
161 | CCGGGTTTAG | 1.03 ± 0.023
162 | CCGGGTTTGT | 1.05 ± 0.03
163 | CCGGTACGTC | 1.12 ± 0.044
164 | CCGGTACTAT | 1.167 ± 0.0092
165 | CCGGTATAAT | 1.144 ± 0.0026
166 | CCGGTATATC | 2.517 ± 0.025
167 | CCGGTTAAAC | 1.64 ± 0.06
168 | CCGGTTAGAG | 1.05 ± 0.014
169 | CCGGTTGGTG | 1 ± 0.036
170 | CCGGTTTTCG | 1.09 ± 0.036
171 | CCGGTTTTGC | 1.21 ± 0.14
172 | CCGTAGAGGG | 1.38 ± 0.043
173 | CCGTAGGAAT | 1.28 ± 0.068
174 | CCGTAGGTTT | 1.06 ± 0.037
175 | CCGTCAAGGA | 1.94 ± 1.2

Row | Sequence | switch fluorescence ratio
176 | CCGTCGGCGC | 1.08 ± 0.019
177 | CCGTCGTACG | 1.06 ± 0.11
178 | CCGTCTGGCG | 0.9959 ± 0.0067
179 | CCGTGACAAT | 4.12 ± 0.34
180 | CCGTGAGGTA | 1 ± 0.026
181 | CCGTGCGTAT | 1.3 ± 0.062
182 | CCGTGGGGGG | 1.02 ± 0.083
183 | CCGTTCTGGG | 0.9786 ± 0.0026
184 | CCGTTGAATT | 1.008 ± 0.0056
185 | CCGTTGACCG | 1.07 ± 0.057
186 | CCGTTGGACT | 1.24 ± 0.067
187 | CCGTTGGGCT | 1.01 ± 0.025
188 | CCGTTGGGGC | 1.12 ± 0.059
189 | CCGTTGTATT | 1.12 ± 0.035
190 | CCGTTTATGA | 1.1 ± 0.047
191 | CCGTTTGAAA | 1.01 ± 0.006
192 | CCGTTTTGAA | 0.981 ± 0.057
193 | CCGTTTTTGC | 1.14 ± 0.09
194 | CCTAAAAGGG | 1 ± 0.032
195 | CCTAACCGTC | 1.156 ± 0.0056
196 | CCTAACGCAG | 2.32 ± 0.43
197 | CCTAATTTTA | 0.971 ± 0.043
198 | CCTACGGAAG | 2.07 ± 0.045
199 | CCTAGCAAGT | 3.19 ± 0.92
200 | CCTAGCCTGC | 1.16 ± 0.054
